Here are results for one molecule from patent US20200078469A1, “HEPARIN-PEPTIDE BIOCONJUGATES AND USES THEREOF” (Symic IP, LLC, priority 2015, published 2020).

For this assay, the target named is collagen. Briefly: Collagen-binding plate assay. The following applies: compared to Hep-SILY that does not contain aggregates. The protocol: The following method is used to assess the binding affinity of bioconjugates disclosed herein for collagen. Similar assays are employed to assess binding affinity of other targets (e.g., hyaluronic acid, ICAM, VCAM, selectin).
Collagen-binding of bioconjugate variants was compared by a plate-assay, in which collagen was coated on 96-well plates. Collagen was coated on high-bind plates at 50 μg/mL in 0.02 N acetic acid for 1 hour at room temperature. Unbound collagen was rinsed with 1×PBS pH 7.4. Plates were then blocked in 1% milk in 1×PBS solution for 1 hour at room temperature.
Bioconjugate variants containing biotinlyated peptides were dissolved to a final concentration of 1 mg/mL in 1% milk in 1×PBS pH 7.4. From this solution, a 10× serial dilution was performed. Molecules were then incubated on the blocked collagen-coated plates and incubated for 15 minutes at room temperature. Plates were then rinsed 3 times with 1×PBS in 1% BSA and 0.2% Tween20.
Bound molecules were detected by streptavidin-HRP, which was diluted 1:500 in 1×PBS with 1% BSA and 0.2% Tween20 and incubated 200 μL/well for 20 minutes at room temperature. Streptavidin solution was rinsed from the plates 3 times with 1×PBS with 0.2% Tween20. […] Absorbance in the well was then measured at 450 nm and binding affinity was plotted in a dose-response by absorbance vs. concentration.

Ends that are not written are not given here.

B1: Hep-SILY containing aggregates: Hep-SILY made with modified purification, containing ionically interacting non-covalently bound SILY peptide; high molecular weight aggregates (conjugate)
peptide 1: RRANAALKAGELYKSILYGSG
peptide 2: RRANAALKAGELYKSILYGSG
peptide 3: RRANAALKAGELYKSILYGSG
modifications: also: conjugated to heparin (glycan) via hydrazide-carbonyl linkage, non-covalent high molecular weight aggregates
B1: the “collagen binding affinity (EC50)” value was “higher affinity (lower EC50 values)”.
